Assay results from patent US20220010021A1 (Sanofi, published 2022).

Key:
human beta-Klotho (KLB) = target: T1, human beta-Klotho (KLB) (human, UniProt Q86Z14 53-997); test: BLI off-rate screening (Octet), crude supernatant;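 also: supernatants tested at 25 µg/mL, dissociation from biosensors recorded in D-PBS with 0.1% BSA over 1800 s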
T1 construct: Bought protein; also called human KLB; β-Klotho
T1 sequence (looked up): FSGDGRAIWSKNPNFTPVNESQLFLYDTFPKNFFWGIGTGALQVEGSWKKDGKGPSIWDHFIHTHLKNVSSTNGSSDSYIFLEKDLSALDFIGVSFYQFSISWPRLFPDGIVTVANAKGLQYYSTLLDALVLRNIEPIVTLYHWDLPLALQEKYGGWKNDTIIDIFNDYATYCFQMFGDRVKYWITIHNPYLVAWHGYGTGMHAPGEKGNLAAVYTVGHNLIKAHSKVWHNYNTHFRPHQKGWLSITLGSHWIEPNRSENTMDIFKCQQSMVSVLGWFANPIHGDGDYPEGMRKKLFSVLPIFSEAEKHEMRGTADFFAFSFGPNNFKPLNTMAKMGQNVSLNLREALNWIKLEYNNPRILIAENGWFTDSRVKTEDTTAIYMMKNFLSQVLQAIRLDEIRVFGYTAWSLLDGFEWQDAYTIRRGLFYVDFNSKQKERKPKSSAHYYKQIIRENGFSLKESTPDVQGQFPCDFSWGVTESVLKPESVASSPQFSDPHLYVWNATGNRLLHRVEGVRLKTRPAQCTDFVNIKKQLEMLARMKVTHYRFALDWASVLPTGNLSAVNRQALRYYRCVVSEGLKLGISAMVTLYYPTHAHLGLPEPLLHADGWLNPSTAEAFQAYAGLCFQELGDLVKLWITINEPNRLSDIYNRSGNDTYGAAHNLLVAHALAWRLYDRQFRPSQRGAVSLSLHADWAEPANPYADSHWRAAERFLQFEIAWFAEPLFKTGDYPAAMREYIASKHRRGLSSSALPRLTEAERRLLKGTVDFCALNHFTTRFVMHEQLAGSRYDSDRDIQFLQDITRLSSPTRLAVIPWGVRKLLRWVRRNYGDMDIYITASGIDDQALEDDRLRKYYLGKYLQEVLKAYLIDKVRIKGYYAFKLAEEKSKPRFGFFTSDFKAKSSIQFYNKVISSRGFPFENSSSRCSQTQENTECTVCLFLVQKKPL

[1] = target: cell surface receptor composed of FGFR1c and co-receptor beta-Klotho (KLB) (human, UniProt P11362 22-822; Q86Z14 1-1044); test: cell-based or functional assay; as to Mean E max, Luciferase reporter gene assay: reference of the scale not given here
Sequence of cell surface receptor composed of FGFR1c and co-receptor beta-Klotho (KLB) (P11362 22-822, chain 1 of 2): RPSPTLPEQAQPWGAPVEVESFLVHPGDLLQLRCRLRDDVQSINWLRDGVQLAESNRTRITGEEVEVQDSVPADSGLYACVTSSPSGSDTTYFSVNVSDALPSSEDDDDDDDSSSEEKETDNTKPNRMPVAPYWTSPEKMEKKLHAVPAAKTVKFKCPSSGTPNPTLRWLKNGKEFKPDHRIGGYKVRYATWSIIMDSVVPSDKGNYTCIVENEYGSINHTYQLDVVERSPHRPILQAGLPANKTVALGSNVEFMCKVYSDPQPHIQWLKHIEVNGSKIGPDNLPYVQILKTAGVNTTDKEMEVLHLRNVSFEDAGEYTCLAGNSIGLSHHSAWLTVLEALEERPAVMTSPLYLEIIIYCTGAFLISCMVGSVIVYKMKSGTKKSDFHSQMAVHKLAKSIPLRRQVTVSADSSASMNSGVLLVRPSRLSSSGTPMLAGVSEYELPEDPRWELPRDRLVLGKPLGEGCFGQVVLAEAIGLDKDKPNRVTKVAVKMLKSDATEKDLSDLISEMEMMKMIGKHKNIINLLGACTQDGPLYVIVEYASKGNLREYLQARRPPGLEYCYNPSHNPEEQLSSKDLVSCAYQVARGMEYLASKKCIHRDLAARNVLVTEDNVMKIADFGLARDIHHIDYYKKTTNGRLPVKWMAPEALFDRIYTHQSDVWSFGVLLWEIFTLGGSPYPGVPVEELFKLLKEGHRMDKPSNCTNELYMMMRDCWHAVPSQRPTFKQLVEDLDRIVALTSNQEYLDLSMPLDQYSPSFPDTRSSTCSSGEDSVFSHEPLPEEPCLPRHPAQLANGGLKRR
Sequence of cell surface receptor composed of FGFR1c and co-receptor beta-Klotho (KLB) (Q86Z14 whole entry, chain 2 of 2): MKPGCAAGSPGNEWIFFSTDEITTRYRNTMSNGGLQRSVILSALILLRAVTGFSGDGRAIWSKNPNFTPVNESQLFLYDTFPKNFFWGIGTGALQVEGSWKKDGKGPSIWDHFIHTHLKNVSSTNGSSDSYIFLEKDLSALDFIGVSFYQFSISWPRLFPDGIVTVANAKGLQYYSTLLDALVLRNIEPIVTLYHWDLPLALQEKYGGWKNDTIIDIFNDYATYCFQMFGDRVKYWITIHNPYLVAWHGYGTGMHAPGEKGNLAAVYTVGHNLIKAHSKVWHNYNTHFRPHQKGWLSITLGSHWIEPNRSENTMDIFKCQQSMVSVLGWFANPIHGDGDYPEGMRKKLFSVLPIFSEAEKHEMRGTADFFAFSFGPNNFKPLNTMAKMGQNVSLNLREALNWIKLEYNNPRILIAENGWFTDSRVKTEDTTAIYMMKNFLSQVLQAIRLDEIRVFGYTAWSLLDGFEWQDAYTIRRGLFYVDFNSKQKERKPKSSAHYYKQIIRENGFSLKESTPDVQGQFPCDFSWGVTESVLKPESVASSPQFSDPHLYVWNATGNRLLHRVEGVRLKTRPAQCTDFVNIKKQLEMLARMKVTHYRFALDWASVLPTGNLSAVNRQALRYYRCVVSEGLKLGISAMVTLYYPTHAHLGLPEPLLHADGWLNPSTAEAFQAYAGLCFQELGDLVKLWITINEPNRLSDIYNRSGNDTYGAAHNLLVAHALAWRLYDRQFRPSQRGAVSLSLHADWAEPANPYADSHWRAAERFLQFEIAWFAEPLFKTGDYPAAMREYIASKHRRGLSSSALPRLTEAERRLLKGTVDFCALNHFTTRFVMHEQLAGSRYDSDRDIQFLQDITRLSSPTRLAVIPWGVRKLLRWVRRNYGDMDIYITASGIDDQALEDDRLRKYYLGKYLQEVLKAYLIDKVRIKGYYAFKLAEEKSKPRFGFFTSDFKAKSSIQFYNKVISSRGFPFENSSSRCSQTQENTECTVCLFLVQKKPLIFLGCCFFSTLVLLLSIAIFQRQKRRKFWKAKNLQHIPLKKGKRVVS

Binder	koff (human beta-Klotho (KLB)) [s⁻¹]	Mean E max, Luciferase reporter gene assay [1] [%]	Mean EC50, Luciferase reporter gene assay [1] [nM]
16H7 light chain variant S94W (antibody, IgG4, V domains shown, IgG4 backbone) VH: not shown VL: SYVLTQPPSVSVAPGQTARITCGGNNIGSESVHWYQQKPGQAPVLVVYDDSDRPSGIPERFSGSNSGNTATLTISRVEAGDEADYYCQVWDGNWDHVVFGGGTKLTVLG	4.3e-05	103	0.159
16H7 light chain variant V32N (antibody, IgG4, V domains shown, IgG4 backbone) VH: not shown VL: SYVLTQPPSVSVAPGQTARITCGGNNIGSESNHWYQQKPGQAPVLVVYDDSDRPSGIPERFSGSNSGNTATLTISRVEAGDEADYYCQVWDGNSDHVVFGGGTKLTVLG	4.4e-05	104	0.123
16H7 light chain variant V32C (antibody, IgG4, V domains shown, IgG4 backbone) VH: not shown VL: SYVLTQPPSVSVAPGQTARITCGGNNIGSESCHWYQQKPGQAPVLVVYDDSDRPSGIPERFSGSNSGNTATLTISRVEAGDEADYYCQVWDGNSDHVVFGGGTKLTVLG	5.1e-06	99	0.108
16H7 light chain variant V32D (antibody, IgG4, V domains shown, IgG4 backbone) VH: not shown VL: SYVLTQPPSVSVAPGQTARITCGGNNIGSESDHWYQQKPGQAPVLVVYDDSDRPSGIPERFSGSNSGNTATLTISRVEAGDEADYYCQVWDGNSDHVVFGGGTKLTVLG	0.00025	92	0.141
16H7 light chain variant V32I (antibody, IgG4, V domains shown, IgG4 backbone) VH: not shown VL: SYVLTQPPSVSVAPGQTARITCGGNNIGSESIHWYQQKPGQAPVLVVYDDSDRPSGIPERFSGSNSGNTATLTISRVEAGDEADYYCQVWDGNSDHVVFGGGTKLTVLG	2e-05	113	0.133
16H7 light chain variant V32Q (antibody, IgG4, V domains shown, IgG4 backbone) VH: not shown VL: SYVLTQPPSVSVAPGQTARITCGGNNIGSESQHWYQQKPGQAPVLVVYDDSDRPSGIPERFSGSNSGNTATLTISRVEAGDEADYYCQVWDGNSDHVVFGGGTKLTVLG	0.00025	91	0.166
16H7 light chain variant V97C (antibody, IgG4, V domains shown, IgG4 backbone) VH: not shown VL: SYVLTQPPSVSVAPGQTARITCGGNNIGSESVHWYQQKPGQAPVLVVYDDSDRPSGIPERFSGSNSGNTATLTISRVEAGDEADYYCQVWDGNSDHCVFGGGTKLTVLG	0.00023	104	0.19
16H7 light chain variant V32T (antibody, IgG4, V domains shown, IgG4 backbone) VH: not shown VL: SYVLTQPPSVSVAPGQTARITCGGNNIGSESTHWYQQKPGQAPVLVVYDDSDRPSGIPERFSGSNSGNTATLTISRVEAGDEADYYCQVWDGNSDHVVFGGGTKLTVLG	7e-05	107	0.107
16H7 light chain variant V32F (antibody, IgG4, V domains shown, IgG4 backbone) VH: not shown VL: SYVLTQPPSVSVAPGQTARITCGGNNIGSESFHWYQQKPGQAPVLVVYDDSDRPSGIPERFSGSNSGNTATLTISRVEAGDEADYYCQVWDGNSDHVVFGGGTKLTVLG	4.1e-05	100	0.102
16H7 light chain variant V32H (antibody, IgG4, V domains shown, IgG4 backbone) VH: not shown VL: SYVLTQPPSVSVAPGQTARITCGGNNIGSESHHWYQQKPGQAPVLVVYDDSDRPSGIPERFSGSNSGNTATLTISRVEAGDEADYYCQVWDGNSDHVVFGGGTKLTVLG	7.3e-05	100	0.147
16H7 light chain variant V32M (antibody, IgG4, V domains shown, IgG4 backbone) VH: not shown VL: SYVLTQPPSVSVAPGQTARITCGGNNIGSESMHWYQQKPGQAPVLVVYDDSDRPSGIPERFSGSNSGNTATLTISRVEAGDEADYYCQVWDGNSDHVVFGGGTKLTVLG	9.5e-05	103	0.135
16H7 light chain variant V32W (antibody, IgG4, V domains shown, IgG4 backbone) VH: not shown VL: SYVLTQPPSVSVAPGQTARITCGGNNIGSESWHWYQQKPGQAPVLVVYDDSDRPSGIPERFSGSNSGNTATLTISRVEAGDEADYYCQVWDGNSDHVVFGGGTKLTVLG	0.00023	102	0.145
16H7 light chain variant V32Y (antibody, IgG4, V domains shown, IgG4 backbone) VH: not shown VL: SYVLTQPPSVSVAPGQTARITCGGNNIGSESYHWYQQKPGQAPVLVVYDDSDRPSGIPERFSGSNSGNTATLTISRVEAGDEADYYCQVWDGNSDHVVFGGGTKLTVLG	1.9e-05	106	0.103
16H7 light chain variant V97F (antibody, IgG4, V domains shown, IgG4 backbone) VH: not shown VL: SYVLTQPPSVSVAPGQTARITCGGNNIGSESVHWYQQKPGQAPVLVVYDDSDRPSGIPERFSGSNSGNTATLTISRVEAGDEADYYCQVWDGNSDHFVFGGGTKLTVLG	2.1e-05	45	3.02
16H7 light chain variant V32S (antibody, IgG4, V domains shown, IgG4 backbone) VH: not shown VL: SYVLTQPPSVSVAPGQTARITCGGNNIGSESSHWYQQKPGQAPVLVVYDDSDRPSGIPERFSGSNSGNTATLTISRVEAGDEADYYCQVWDGNSDHVVFGGGTKLTVLG	5.1e-05	102	0.124
16H7 light chain variant V32G (antibody, IgG4, V domains shown, IgG4 backbone) VH: not shown VL: SYVLTQPPSVSVAPGQTARITCGGNNIGSESGHWYQQKPGQAPVLVVYDDSDRPSGIPERFSGSNSGNTATLTISRVEAGDEADYYCQVWDGNSDHVVFGGGTKLTVLG	6.5e-05	103	0.24
16H7 light chain variant V32K (antibody, IgG4, V domains shown, IgG4 backbone) VH: not shown VL: SYVLTQPPSVSVAPGQTARITCGGNNIGSESKHWYQQKPGQAPVLVVYDDSDRPSGIPERFSGSNSGNTATLTISRVEAGDEADYYCQVWDGNSDHVVFGGGTKLTVLG	2.6e-05	101	0.158
16H7 light chain variant V32L (antibody, IgG4, V domains shown, IgG4 backbone) VH: not shown VL: SYVLTQPPSVSVAPGQTARITCGGNNIGSESLHWYQQKPGQAPVLVVYDDSDRPSGIPERFSGSNSGNTATLTISRVEAGDEADYYCQVWDGNSDHVVFGGGTKLTVLG	4.9e-05	104	0.126
16H7 light chain variant V32A (antibody, IgG4, V domains shown, IgG4 backbone) VH: not shown VL: SYVLTQPPSVSVAPGQTARITCGGNNIGSESAHWYQQKPGQAPVLVVYDDSDRPSGIPERFSGSNSGNTATLTISRVEAGDEADYYCQVWDGNSDHVVFGGGTKLTVLG	4.7e-05	108	0.144
16H7 light chain variant S94Y (antibody, IgG4, V domains shown, IgG4 backbone) VH: not shown VL: SYVLTQPPSVSVAPGQTARITCGGNNIGSESVHWYQQKPGQAPVLVVYDDSDRPSGIPERFSGSNSGNTATLTISRVEAGDEADYYCQVWDGNYDHVVFGGGTKLTVLG	6.2e-05	100	0.098
